Experimental findings from patent publication US20040054149 are described below.

The target of the series is chondroitinase-treated bovine aggrecan, P13608.
Chain of chondroitinase-treated bovine aggrecan, P13608 (P13608 17-2364): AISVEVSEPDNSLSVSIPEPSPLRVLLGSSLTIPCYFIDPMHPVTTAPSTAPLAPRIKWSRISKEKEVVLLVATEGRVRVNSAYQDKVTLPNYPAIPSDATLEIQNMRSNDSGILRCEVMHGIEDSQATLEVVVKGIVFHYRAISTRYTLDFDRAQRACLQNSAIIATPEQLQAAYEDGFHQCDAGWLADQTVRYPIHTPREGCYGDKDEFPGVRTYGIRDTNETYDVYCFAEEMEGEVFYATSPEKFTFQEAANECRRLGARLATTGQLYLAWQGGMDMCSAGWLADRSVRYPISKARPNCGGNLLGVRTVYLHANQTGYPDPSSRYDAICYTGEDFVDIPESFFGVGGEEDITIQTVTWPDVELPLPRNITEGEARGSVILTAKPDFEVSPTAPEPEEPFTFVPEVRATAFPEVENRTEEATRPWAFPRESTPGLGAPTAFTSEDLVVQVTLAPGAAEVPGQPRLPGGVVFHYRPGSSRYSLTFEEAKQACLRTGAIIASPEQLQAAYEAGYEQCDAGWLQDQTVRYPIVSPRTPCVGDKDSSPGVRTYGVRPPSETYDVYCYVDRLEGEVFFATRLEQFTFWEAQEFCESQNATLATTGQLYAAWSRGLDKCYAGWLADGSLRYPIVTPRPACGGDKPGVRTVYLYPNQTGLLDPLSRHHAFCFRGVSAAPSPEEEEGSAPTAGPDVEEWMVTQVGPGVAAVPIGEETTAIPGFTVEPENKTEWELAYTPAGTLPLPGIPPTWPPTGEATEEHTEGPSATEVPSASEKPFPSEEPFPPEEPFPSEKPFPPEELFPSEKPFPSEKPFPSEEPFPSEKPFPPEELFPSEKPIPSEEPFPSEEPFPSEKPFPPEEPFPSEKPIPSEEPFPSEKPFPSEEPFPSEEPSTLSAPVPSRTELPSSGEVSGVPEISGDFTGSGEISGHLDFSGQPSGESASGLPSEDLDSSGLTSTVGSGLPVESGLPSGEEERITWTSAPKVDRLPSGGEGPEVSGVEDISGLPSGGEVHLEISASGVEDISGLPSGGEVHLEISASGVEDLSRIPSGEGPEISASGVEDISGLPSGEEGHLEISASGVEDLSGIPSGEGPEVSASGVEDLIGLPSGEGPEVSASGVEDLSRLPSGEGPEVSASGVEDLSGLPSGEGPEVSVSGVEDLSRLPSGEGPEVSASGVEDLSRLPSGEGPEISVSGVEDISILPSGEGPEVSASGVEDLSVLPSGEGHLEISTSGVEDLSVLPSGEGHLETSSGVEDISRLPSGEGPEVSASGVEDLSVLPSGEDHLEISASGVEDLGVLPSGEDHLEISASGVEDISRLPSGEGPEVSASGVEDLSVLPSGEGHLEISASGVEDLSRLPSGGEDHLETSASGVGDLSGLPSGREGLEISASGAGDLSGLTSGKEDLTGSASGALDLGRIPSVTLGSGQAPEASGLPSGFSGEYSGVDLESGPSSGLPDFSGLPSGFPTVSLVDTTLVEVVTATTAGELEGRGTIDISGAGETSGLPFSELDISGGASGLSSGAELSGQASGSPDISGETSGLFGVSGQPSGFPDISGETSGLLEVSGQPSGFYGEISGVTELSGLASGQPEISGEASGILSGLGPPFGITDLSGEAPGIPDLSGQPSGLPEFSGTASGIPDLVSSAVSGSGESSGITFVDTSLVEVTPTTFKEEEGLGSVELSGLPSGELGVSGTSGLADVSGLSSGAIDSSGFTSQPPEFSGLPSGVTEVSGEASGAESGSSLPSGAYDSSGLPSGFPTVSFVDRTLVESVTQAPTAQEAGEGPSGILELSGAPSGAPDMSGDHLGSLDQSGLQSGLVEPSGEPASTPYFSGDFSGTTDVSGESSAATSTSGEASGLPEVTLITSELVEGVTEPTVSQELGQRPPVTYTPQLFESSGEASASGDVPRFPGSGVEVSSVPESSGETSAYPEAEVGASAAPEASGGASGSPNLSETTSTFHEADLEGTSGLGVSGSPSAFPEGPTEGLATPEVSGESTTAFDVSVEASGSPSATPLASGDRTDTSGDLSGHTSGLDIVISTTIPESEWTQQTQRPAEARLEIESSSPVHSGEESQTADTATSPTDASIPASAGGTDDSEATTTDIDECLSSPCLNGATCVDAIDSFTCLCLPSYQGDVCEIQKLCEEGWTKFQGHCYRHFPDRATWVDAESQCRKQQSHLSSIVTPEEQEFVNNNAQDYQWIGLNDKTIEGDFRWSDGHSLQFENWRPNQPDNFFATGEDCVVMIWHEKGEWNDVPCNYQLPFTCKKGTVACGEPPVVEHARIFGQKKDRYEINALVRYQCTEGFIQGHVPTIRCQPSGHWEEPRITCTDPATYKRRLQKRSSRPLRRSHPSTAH

B1: ADAMTS-5 active site mutant (E411-Q411) (protein)
chain: SISRARQVELLLVADASMARLYGRGLQHYLLTLASIANRLYSHASIENHIRLAVVKVVVLGDKDKSLEVSKNAATTLKNFCKWQHQHNQLGDDHEEHYDAAILFTREDLCGHHSCDTLGMADVGTICSPERSCAVIEDDGLHAAFTVAHQIGHLLGLSHDDSKFCEETFGSTEDKRLMSSILTSIDASKPWSKCTSATITEFLDDGHGNCLLDLPRKQILGPEELPGQTYDATQQCNLTFGPEYSVCPGMDVCARLWCAVVRQGQMVCLTKKLPAVEGTPCGKGRICLQGKCVDKTKKKYYSTSSHGNWGSWGSWGQCSRSCGGGVQFAYRHCNNPAPRNNGRYCTGKRAIYRSCSLMPCPPNGKSFRHEQCEAKNGYQSDAKGVKTFVEWVPKYAGVLPADVCKLTCRAKGTGYYVVFSPKVTDGTECRPYSNSVCVRGKCVRTGCDGIIGSKLQYDKCGVCGGDNSSCTKIVGTFNKKSKGYTDVVRIPEGATHIKVRQFKAKDQTRFTAYLALKKKNGEYLINGKYMISTSETIIDINGTVMNYSGWSHRDDFLHGMGYSATKEILIVQILATDPTKPLDVRYSFFVPKKSTPKVNSVTSHGSNKVGSHTSQPQWVTGPWLACSRTCDTGWHTRTVQCQDGNRKLAKGCPLSQRPSAFKQCLLKKC
Consider B1, for which the “aggrecanase activity (ELISA)” value is given as “lacked aggrecanase activity as shown by ELISA (FIG. 16)”.

B2: truncated aggrecanase-2 from amino acid #1 through amino acid #628 (protein)
chain: SISRARQVELLLVADASMARLYGRGLQHYLLTLASIANRLYSHASIENHIRLAVVKVVVLGDKDKSLEVSKNAATTLKNFCKWQHQHNQLGDDHEEHYDAAILFTREDLCGHHSCDTLGMADVGTICSPERSCAVIEDDGLHAAFTVAHEIGHLLGLSHDDSKFCEETFGSTEDKRLMSSILTSIDASKPWSKCTSATITEFLDDGHGNCLLDLPRKQILGPEELPGQTYDATQQCNLTFGPEYSVCPGMDVCARLWCAVVRQGQMVCLTKKLPAVEGTPCGKGRICLQGKCVDKTKKKYYSTSSHGNWGSWGSWGQCSRSCGGGVQFAYRHCNNPAPRNNGRYCTGKRAIYRSCSLMPCPPNGKSF
As for B2, the “% aggrecan cleavage (3B3 ELISA assay)” value is “truncated aggrecanases of the invention having one or both TSP domains deleted are biologically active”.

B3: truncated aggrecanase-2 from amino acid #1 through amino acid #567 (protein)
chain: SISRARQVELLLVADASMARLYGRGLQHYLLTLASIANRLYSHASIENHIRLAVVKVVVLGDKDKSLEVSKNAATTLKNFCKWQHQHNQLGDDHEEHYDAAILFTREDLCGHHSCDTLGMADVGTICSPERSCAVIEDDGLHAAFTVAHEIGHLLGLSHDDSKFCEETFGSTEDKRLMSSILTSIDASKPWSKCTSATITEFLDDGHGNCLLDLPRKQILGPEELPGQTYDATQQCNLTFGPEYSVCPGMDVCARLWCAVVRQGQMVCLTKKLPAVEGTPCGKGRICLQGKCVDKTKKKYYSTSSH
Regarding B3, the “% aggrecan cleavage (3B3 ELISA assay)” value is on record as “truncated aggrecanases of the invention having one or both TSP domains deleted are biologically active”.
